Test results from article PMC12748787.

Molecular target: Trx-CaV1.2 JBM (mouse) (UniProt Q01815)
Test: ITC

Trx-CaV1.2 JBM (mouse), sequence (Q01815 1647-1777): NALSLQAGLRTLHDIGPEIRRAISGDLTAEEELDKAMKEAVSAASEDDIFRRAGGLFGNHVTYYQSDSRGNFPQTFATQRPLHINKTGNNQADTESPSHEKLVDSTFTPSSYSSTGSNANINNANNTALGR

Substance | fold reduction in binding affinity against the wild type [fold] | other results
JPH2 NT A399S (A405S in mouse JPH2) (from UniProt Q9ET78 1-440) (domain or fragment) | 3 | –
JPH2 NT E85K (from UniProt Q9ET78 1-440) (domain or fragment) | 3 | –
JR-JBM chimera R160E/F165S (from UniProt Q9ET78 1-155; Q9ET78 168-440) (domain or fragment) | – | Kd: 42 µM
MBP-JPH2 NT S165F (mouse) (from UniProt Q9ET78 1-440) (domain or fragment) | – | fold decrease in binding affinity against the wild type: > 5 fold
